Measurements reported in patent US7011975 (UNIVERSITY OF GEORGIA RESEARCH FOUNDATION, dated 2006).

Target: Cry1Ac toxin (Bacillus thuringiensis, UniProt P05068 29-623, rhodamine label (5(6)-TAMRA SE) in the cell-staining assay; coupled to CNBr-activated Sepharose 4B in the affinity assay)
Test: rhodamine-labeled toxin staining of fixed Sf21 cells, confocal microscopy

B1: Manduca sexta 120 kDa aminopeptidase N APN1a expressed in Sf21 cells transfected with pHSP120 (receptor)
chain: PSYRLPTTTRPRHYAVTLTPYFDVVPAGVSSLTTFSFDGEVTIYISPTQANVNEIVLHCNDLTIQSLRVTYVSGNSEVDITATGQTFTCEMPYSFLRIRTSTPLVMNQEYIIRSTFRGNLQTNMRGFYRSWYVDRTGKRWMATTQLQPGHARQAFPCYDEPGFKATFDITMNREADFSPTISNMPIRATTTLTNGRISETFFTTPLTSTYLLAFIVSHYQVISNNNNAARPFRIYARNNVGSQGDWSLEMGEKLLLAMENYTAIPYYTMAQNIDMKQAAIPDFSAGAMENWGLLTYREALILYDPLNSNHHYRQRVANIVSHEIAHMWFGNLVTCAWWDNLWLNEGFARFYQYYLTATVDPELGYEIRFIPEQLQVAMFSDSVDSAHALTDTSVNDPVAVSAHFSTITYARGAAILRMTQHLLSYDTFVKGLRQYLRARQFDVAEPYHLFSALDAAAAEDNALAAYTGITIDAYFRTWSEKAGHPLLSVTVDHETGRMTLVQARWERNTGVSRFPGLWHIPITWTRAGAPDFENLKPSQVMTGQSLVIDRGTRGQEWVIFNKQVSGFYRVNYDNTTWGLITRALRSANRTVIHELSRSQIVDDVFQLARSGVMSYQRALNILSYLRFEDAYAPWLSAISGFNWVIRRFAHDAANLQTLQNQIIGLSEAVVARLGFTEVSGGTYMTDLQRLHVMQFLCNVGHQQCIDTGRQNFLNWRNGSFIPANMRPWVYCTGLRYGSAEDFNYFWNRYIVEDLSNEKVVMLEAAGCTRDQASLEKFLNAIVSGNDDVRPQDHSSALSSAITSNDVNTMRAFDWLTKNVDQITRTLGSITSPLNTITSRLLTEAQMTQVQTWLDANRNTIGAAYNTGVNGIATSRANLQWSANRMSEFLRFFETGFVDDVPSEATTVAPPAETTVTPSTFPPTEAPATTPAPG
modifications: GPI anchor at the C-terminus; heterogeneously glycosylated (residues not stated)
notes: also called expressed APN; expressed 120 kDa APN
B1: no binding (tested: 1 µg/ml).
